In US20240228647A1, “OFATUMUMAB FOR TREATING MULTIPLE SCLEROSIS IN ASIAN PATIENTS” (Novartis AG, priority 2021, published 2024):
Where two headings read alike, the source gives them in different places. Marks after values point to notes of the source that are not given here.

Columns and labels:
patients with RMS [1] = type: in vivo, human
Procedure: (§1) Ofatumumab was investigated in 1882 patients with RMS from two identical Phase III randomized, double-blind, double-dummy, active-comparator controlled, parallel-group, multicenter studies of identical design (Study I and Study II). Patients were randomized to receive either ofatumumab, OMB (20 mg s.c injections every 4 weeks, after an initial loading regimen of 3 injections on Day 1, 7, and 14), or teriflunomide, TER (14 mg p.o. once a day) as active comparator. For brevity, the teriflunomide data are not shown hereinafter.
(§2) The maximum treatment duration for an individual patient was 30 study months (approximately 2.5 years). The two studies included a total of 71 patients of Asian race (36 patients in ofatumumab and 35 patients in teriflunomide treatment groups). This Example also includes the Asian patients data from oncology studies (Study A and Study B), as supportive data, where required.
For the safety analyses of this report, non-serious treatment emergent adverse events (TEAEs) up to and including safety cut-off (i.e. 100 days after last study drug administration) and serious TEAEs regardless of the safety cutoff were considered (if reported prior to the data cut-off of Studies I and II). Common terminology criteria for adverse events (CTCAE) grading was used to record the severity of each AE. The latest version of CTCAE available at the time of TEAE reporting was used. […] The three most frequently reported AEs by SOC were ‘General disorders and administration site conditions’ ‘Infections and infestations’ and ‘Injury, poisoning and procedural complications’ in the Asian and ROW subgroups by race (Table 7). […] In the Asian subgroup, 1 patient experienced SAEs of urinary tract infections, urosepsis and testicular infarction in the ofatumumab group and 1 patient reported an SAE of nephrolithiasis in the teriflunomide group (Table 8). Due to the small number of Asian patients by race and region, results should be interpreted with caution.
AEs of special interest were summarized by risk name, PT and treatment. Furthermore, the incidence of any AE that fulfilled the search terms as defined in eCRS were summarized by risk name, level, and maximum CTCAE grade. In this section, AESIs are first described for subgroups by race and then by region. […] The definitions of AEs of special interest correspond to the identified or potential risks for ofatumumab and its class of drug as well as those for the comparator (teriflunomide). AESIs, based on the safety profiles of ofatumumab, comparator, and other anti-CD20 mABs are: • Injection-related reactions including injection-systemic reaction and injection-site • reactions • Infections, including opportunistic infections, HBV infection reactivation and PML • Malignant and premalignant disorders • Hepatic Safety • Neutropenia

[2] = human, in vivo
patients with RMS [3] = test: Phase II study, Japan and non-Japan subgroups of patients with RMS; type: in vivo, human
[4] = Pharmacokinetics of ofatumumab in patients (ethnic comparison, half-life); conditions: 2000 mg intravenous infusion, refractory CLL
patients with RMS [5] = test: Gd-enhancing T1 lesions per scan, Phase III Studies I and II; type: in vivo, human; conditions: for Gd-enhancing T1 lesions rate reduction (%): vs teriflunomide
Procedure: as §1, §2
The number of Gd-enhancing T1 lesions per scan was a key secondary efficacy endpoint in the pivotal Phase III studies.

patients with RMS [6] = test: Annualized rate of new or enlarging T2 lesions, Phase III Studies I and II; type: in vivo, human; conditions: for New or enlarging T2 lesions rate reduction (%): vs teriflunomide
Procedure: as §1, §2
The annualized rate of new or enlarging T2 lesions was a key secondary efficacy endpoint in the pivotal Phase III studies.

Substance: ofatumumab [OMB]
- TEAE: Gastrointestinal disorders, % (patients with RMS [1]; Asian (race)): (11.1) %
- TEAE: Nervous system disorders, % (patients with RMS [1]; Asian (race)): (11.1) %
- TEAE: Reproductive system and breast disorders, % (patients with RMS [1]; Asian (race)): (11.1) %
- AESI: Injection-site reaction (any reaction), % (patients with RMS [1]; Rest of World (race)): (11.1) %
- AE by PT: alopecia, % (patients with RMS [1]; in vivo): 5.7%
- AE by PT: alopecia, patients (patients with RMS [1]; in vivo): 52
- AE by PT: nasopharyngitis, % (patients with RMS [1]; in vivo): 18.5%
- AE by PT: nasopharyngitis, patients (patients with RMS [1]; in vivo): 168
- AE by PT: pyrexia, % (patients with RMS [1]; in vivo): 33.3%
- AE by PT: pyrexia, patients (patients with RMS [1]; in vivo): 12
- AE by PT: upper respiratory tract infection, % (patients with RMS [1]; in vivo): 11.1%
- AE by PT: upper respiratory tract infection, patients (patients with RMS [1]; in vivo): 4
- AESI Neutropenia, % (patients with RMS [1]; in vivo): (1.0) %
- AESI: Drug abuse and dependence, % (patients with RMS [1]; in vivo): 0.1%
- AESI: Drug abuse and dependence, number of events [E] (patients with RMS [1]; in vivo): 1
- AESI: Herpes viral infections, % (patients with RMS [1]; in vivo): 5.1%
- AESI: Herpes viral infections, number of events [E] (patients with RMS [1]; in vivo): 61
- AESI: Injection-site reaction (any reaction), % (patients with RMS [1]; in vivo): (2.8) %
- AESI: Lower Respiratory tract Infections, % (patients with RMS [1]; in vivo): 3.3%
- AESI: Lower Respiratory tract Infections, number of events [E] (patients with RMS [1]; in vivo): 31
- AESI: Neoplasms, % (patients with RMS [1]; in vivo): 2.6%
- AESI: Neoplasms, number of events [E] (patients with RMS [1]; in vivo): 28
- AESI: Neutropenia, % (patients with RMS [1]; in vivo): 1.0%
- AESI: Neutropenia, number of events [E] (patients with RMS [1]; in vivo): 13
- AESI: Opportunistic infections, % (patients with RMS [1]; in vivo): 0.1%
- AESI: Opportunistic infections, number of events [E] (patients with RMS [1]; in vivo): 1
- AESI: Pregnancy, % (patients with RMS [1]; in vivo): 0.1%
- AESI: Pregnancy, number of events [E] (patients with RMS [1]; in vivo): 1
- AESI: Premalignant disorders, % (patients with RMS [1]; in vivo): 0.8%
- AESI: Premalignant disorders, number of events [E] (patients with RMS [1]; in vivo): 9
- AESI: Risk of malignancy, % (patients with RMS [1]; in vivo): 0.5%
- AESI: Risk of malignancy, number of events [E] (patients with RMS [1]; in vivo): 5
- AESI: Suicidal Ideation and Behavior, % (patients with RMS [1]; in vivo): 0.9%
- AESI: Suicidal Ideation and Behavior, number of events [E] (patients with RMS [1]; in vivo): 9
- AESI: Urinary tract infection, number of events [E] (patients with RMS [1]; in vivo): 4
- AESI: Varicella-Zoster virus infections, % (patients with RMS [1]; in vivo): 2.0%
- AESI: Varicella-Zoster virus infections, number of events [E] (patients with RMS [1]; in vivo): 19
- Drug abuse and dependence, % (patients with RMS [1]; in vivo): (0.1) %
- Pregnancy, % (patients with RMS [1]; in vivo): (0.1) %
- SAE by PT: Appendicitis, % (patients with RMS [1]; in vivo): 0.9%
- SAE by PT: Appendicitis, patients (patients with RMS [1]; in vivo): 8
- Serious TEAE: Blood and lymphatic system disorders, % (patients with RMS [1]; in vivo): (0.2) %
- Serious TEAE: Cardiac disorders, % (patients with RMS [1]; in vivo): (0.3) %
- Serious TEAE: Ear and labyrinth disorders, % (patients with RMS [1]; in vivo): (0.3) %
- Serious TEAE: Gastrointestinal disorders, % (patients with RMS [1]; in vivo): (0.9) %
- Serious TEAE: General disorders and administration site conditions, % (patients with RMS [1]; in vivo): (0.3) %
- Serious TEAE: Hepatobiliary disorders, % (patients with RMS [1]; in vivo): (0.5) %
- Serious TEAE: Immune system disorders, % (patients with RMS [1]; in vivo): (0.1) %
- Serious TEAE: Injury, poisoning and procedural complications, % (patients with RMS [1]; in vivo): (1.4%
- Serious TEAE: Investigations, % (patients with RMS [1]; in vivo): (0.2) %
- Serious TEAE: Musculoskeletal and connective tissue disorders, % (patients with RMS [1]; in vivo): (0.9) %
- Serious TEAE: Neoplasms benign, malignant and unspecified (incl cysts and polyps), % (patients with RMS [1]; in vivo): (1.0) %
- Serious TEAE: Nervous system disorders, % (patients with RMS [1]; in vivo): (0.8) %
- Serious TEAE: Psychiatric disorders, % (patients with RMS [1]; in vivo): (1.1) %
- Serious TEAE: Respiratory, thoracic and mediastinal disorders, % (patients with RMS [1]; in vivo): (0.2) %
- Serious TEAE: Skin and subcutaneous tissue disorders, % (patients with RMS [1]; in vivo): (0.1) %
- TEAE: Cardiac disorders, % (patients with RMS [1]; in vivo): (2.9) %
- TEAE: Congenital, familial and genetic disorders, % (patients with RMS [1]; in vivo): (0.1) %
- TEAE: Endocrine disorders, % (patients with RMS [1]; in vivo): (1.0) %
- TEAE: Gastrointestinal disorders, % (patients with RMS [1]; in vivo): (24.2) %
- TEAE: Hepatobiliary disorders, % (patients with RMS [1]; in vivo): (1.9) %
- TEAE: Immune system disorders, % (patients with RMS [1]; in vivo): (1.8) %
- TEAE: Neoplasms benign, malignant and unspecified (incl cysts and polyps), % (patients with RMS [1]; in vivo): (2.6) %
- TEAE: Nervous system disorders, % (patients with RMS [1]; in vivo): (29.5) %
- TEAE: Reproductive system and breast disorders, % (patients with RMS [1]; in vivo): (5.9) %
- TEAE: Social circumstances, % (patients with RMS [1]; in vivo): (0.3) %
- TEAE: Vascular disorders, % (patients with RMS [1]; in vivo): (6.0) %
- Ofatumumab concentrations in Asian subjects and White subjects [2]: Comparable ofatumumab concentrations
- Race as a covariate in the population PK analysis [2]: not found to be a significant covariate
- Half-life at steady state ([2]; sc, 20 mg): approximately 16 days
- Depletion of CD19+ B-cells and CD3+CD20+ T-cells (patients with RMS [3]): rapid and consistent depletion
- Efficacy vs. placebo in lesion suppression (patients with RMS [3]; Phase II study): superior efficacy
- PK parameters (Cmax, AUC, T1/2) in Asian vs. White patients [4]: Comparable PK parameters
- Gd-enhancing lesions/number of scans (lesion rate) (patients with RMS [5]; Asian): (0.019)
- Number of Gd-enhancing lesions (patients with RMS [5]; Asian): 1/54
- Gd-enhancing lesions/number of scans (lesion rate) (patients with RMS [5]; Rest of World): (0.031)
- Number of Gd-enhancing lesions (patients with RMS [5]; Rest of World): 51/1666
- Reduction of mean number of Gd-enhancing T1 lesions per scan compared with teriflunomide (patients with RMS [5]; overall population): 95.8%
- Gd-enhancing T1 lesions rate reduction (%) (patients with RMS [5]; Asian): 93.8/0.022* %
- Gd-enhancing T1 lesions rate reduction (%) (patients with RMS [5]; Rest of World): 95.9/<0.001* %
- New or enlarging lesions/patient years (lesion years) (patients with RMS [6]; Asian): (1.00)
- Number of new or enlarging lesions (patients with RMS [6]; Asian): 44/44
- New or enlarging lesions/patient years (lesion years) (patients with RMS [6]; Rest of World): (0.84
- Number of new or enlarging lesions (patients with RMS [6]; Rest of World): 1185/1404
- Reduction of rate of new or enlarging T2 lesions compared with teriflunomide (patients with RMS [6]; overall population): 82.9%
- New or enlarging T2 lesions rate reduction (%) (patients with RMS [6]; Asian): 59.0/0.041* %
- New or enlarging T2 lesions rate reduction (%) (patients with RMS [6]; Rest of World): 83.3/<0.001* %
